Data taken from patent US20250288617A1, “Gene Therapy” (priority 2022, published 2025).

B1: Ad5-E4orf6/7: adenovirus serotype 5 protein E4orf6/7 (SEQ ID No. 27), delivered as in vitro transcribed mRNA (nucleic acid)
DNA: ATGACCACCAGCGGCGTGCCCTTCGGCATGACACTCAGACCTACCAGAAGCCGGCTGAGCAGAAGAACCCCTTACAGCAGAGACAGGCTGCCTCCATTCGAGACAGAGACACGGGCCACCATCCTGGAAGATCACCCTCTGCTGCCCGAGTGTAACACCCTGACCATGCACAACGCCTGGACAAGCCCATCTCCTCCAGTGAAACAGCCCCAAGTGGGACAGCAGCCTGTTGCTCAGCAGCTGGACAGCGACATGAACCTGTCTGAACTGCCCGGCGAGTTCATCAACATCACCGACGAGAGACTGGCCCGGCAAGAGACAGTGTGGAACATCACCCCTAAGAACATGAGCGTGACCCACGACATGATGCTGTTCAAGGCCAGCAGAGGCGAGCGGACAGTGTACAGCGTTTGTTGGGAAGGCGGCGGACGGCTGAATACCAGAGTGCTGTAA
modifications: in vitro transcribed mRNA
B2: GSE56: p53 dominant negative peptide (SEQ ID NO: 3), delivered as in vitro transcribed mRNA (nucleic acid)
DNA: ATGGATGGATGGTGTCCTGGGAGAGACCGTCGGACAGAGGAAGAAAATTTCCGCAAAAAAGAAGAGCATTGCCCGGAGCTGCCCCCAGGGAGTGCAAAGAGAGCACTGCCCACCAGCACAAGCTCCTCTCCCCAGCAAAAGAAAAAACCACTCGATGGAGAATATTTCACCCTTAAGATCCGTGGGCGTGAGCGCTTCGAGATGTTCCGAGAGCTGAATGAGGCCTTGGAATTAAAGGATGCCCGTGCTGCCGAGGAGTCAGGAGACAGCAGGGCTCACTCCAGCTACCCGAAGATAGTTAGTTAG
modifications: in vitro transcribed mRNA; protein SEQ ID NO: 3

What was measured:
[1] = tested on: vector DNA (ITR+cargo, ITR, HIV probes) in human graft; assay: ddPCR of viral vector copies per human genome in long-term human xenografts; assay type: in vivo, NSG mice; details: AAVS1-edited HSPCs, AAV template
Source text: Since short-read sequencing of the edited locus and genome-wide IS identification may underestimate the overall frequency of trapping events, we performed ddPCR analyses to get an independent genome-wide quantification of AAV genome trapping events. […] On the contrary, we detected only background noise signal when probing for the AAV plasmid contaminants in the human long-term graft (FIG. 6i). […] Whether integration of AAV DNA occurs mostly as individual elements in a sizable fraction of cells treated for editing or as concatemers in only a small fraction of them cannot be determined by this analysis. Since ITR fragments are not detected by the ITR+cargo assay we performed ddPCR also with the ITR probe on PB samples of mice from FIG. 5g and found equal or higher signal in most mice (FIG. 51).
gDNA was isolated with QIAamp DNA Micro Kit from DNAse-treated in vitro culture cells pellet and in vivo samples, or with QuickExtract (Epicentre) from single colonies according to the manufacturer's instructions. For ddPCR analyses, 5-50 ng of gDNA for in vitro/vivo samples and 2 μl of gDNA for single colonies were analyzed using the QX200 Droplet Digital PCR System according to the manufacturer's instructions. […]

[2] = tested on: AAVS1 locus; assay type: in vivo, human xenograft; details: in presence and absence of Ad5-E4orf6/7; 65 samples of published experiments
Experimental: PCR amplicons for individual samples were generated by nested PCR and starting from >50-100 ng of purified gDNA. The first PCR step was performed with GoTaq G2 DNA Polymerase (Promega) according to manufacturer instruction using the following amplification protocol: 95° C.×5′min, (95° C.×0.5 min, 60° C.×0.5 min, 72° C.×[…])×20 cycles, 72° C.×5 min. The second PCR step was performed with GoTaq G2 DNA Polymerase (Promega) according to manufacturer instruction using 5 μl of the first-step PCR product and the following amplification protocol: 95° C.×5 min, (95° C.×0.5 min, 60° C.×0.5 min, 72° C.×0.3 min)×20 cycles, 72° C.×5 min. […] Amplicons concentration and quality was assessed by QuantiFluor ONE dsDNA system and 4200 Tapestation System (Agilent). […]
Sequencing data were analyzed with CRISPResso2, which enables detection and quantification of insertions, mutations, and deletions in reads from gene editing experiments. In details, for each sample, input NGS reads were trimmed using the Trimmomatic software (http://www.usadellab.org/cms/?page=trimmomatic) based on the phred33 score to get rid of low-quality positions (score <30) and to remove Illumina adapters, keeping only trimmed sequences longer than 100 bp (CRISPResso2 options:—trim_sequences—trimmomatic_command trimmomatic—trimmomatic_options_string ‘[…]: TruSeq3-PE-2.fa: 2:30:10 MINLEN: 100’). […]

| Molecule | ITR+cargo copies in long-term xenograft in presence of editing enhancers [1] | frequency and number of unique NHEJ-edited alleles in the human graft [2] |
| --- | --- | --- |
| B1 | more copies | – |
| B2 | more copies | higher |
